According to patent publication US20160008485A1 (Pfizer, published 2016):
Values joined by “and” are separate entries in the source; they are usually repeats but may differ in a detail not shown here. Equal entries are not always repeated.

T1: human 5T4 antigen on cells (MDAMB435/5T4 transfectants; MDA-MB-468) (human, UniProt Q13641 32-420)
T1 sequence (looked up): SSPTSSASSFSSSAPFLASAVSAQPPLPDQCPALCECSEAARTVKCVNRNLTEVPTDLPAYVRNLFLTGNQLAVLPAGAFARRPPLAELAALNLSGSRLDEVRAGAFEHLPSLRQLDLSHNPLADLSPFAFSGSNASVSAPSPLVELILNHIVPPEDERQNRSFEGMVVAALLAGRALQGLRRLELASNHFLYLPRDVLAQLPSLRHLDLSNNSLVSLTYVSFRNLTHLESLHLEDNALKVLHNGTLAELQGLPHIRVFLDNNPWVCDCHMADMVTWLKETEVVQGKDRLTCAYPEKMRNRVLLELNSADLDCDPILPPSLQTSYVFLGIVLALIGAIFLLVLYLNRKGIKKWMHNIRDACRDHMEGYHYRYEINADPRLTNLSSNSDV

T2: human truncated recombinant 5T4 protein (5T4-tm-_myc_his) (human, UniProt Q13641 32-355)
T2 construct: extracellular domain; Coated on the ELISA plate; construct cited to Boghaert et al. 2008; also called 5T4 antigen; not shown: Myc and histidine tags
T2 sequence (looked up): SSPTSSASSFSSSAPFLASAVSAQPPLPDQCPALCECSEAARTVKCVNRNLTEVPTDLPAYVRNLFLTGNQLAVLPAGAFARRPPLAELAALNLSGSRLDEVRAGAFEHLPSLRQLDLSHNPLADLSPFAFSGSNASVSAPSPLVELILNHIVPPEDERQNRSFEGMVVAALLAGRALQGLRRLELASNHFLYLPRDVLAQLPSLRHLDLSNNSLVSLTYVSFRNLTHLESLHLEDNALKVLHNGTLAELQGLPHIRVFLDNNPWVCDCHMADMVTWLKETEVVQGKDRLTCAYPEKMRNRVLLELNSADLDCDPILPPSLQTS

B1: 5T4-K392C+L443C-mcMMAD (antibody)
heavy: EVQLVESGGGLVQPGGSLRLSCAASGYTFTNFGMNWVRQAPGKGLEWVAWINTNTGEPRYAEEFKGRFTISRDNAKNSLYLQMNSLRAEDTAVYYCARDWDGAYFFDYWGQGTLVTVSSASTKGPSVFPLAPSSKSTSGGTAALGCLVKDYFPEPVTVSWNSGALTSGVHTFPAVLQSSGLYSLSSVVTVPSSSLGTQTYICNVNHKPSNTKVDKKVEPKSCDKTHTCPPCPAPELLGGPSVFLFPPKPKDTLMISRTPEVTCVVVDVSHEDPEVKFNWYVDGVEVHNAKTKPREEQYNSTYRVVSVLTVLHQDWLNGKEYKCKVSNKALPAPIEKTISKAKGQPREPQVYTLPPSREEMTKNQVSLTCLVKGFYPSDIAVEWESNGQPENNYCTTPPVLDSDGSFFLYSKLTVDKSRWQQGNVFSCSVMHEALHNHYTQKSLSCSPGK
light: DIQMTQSPSSLSASVGDRVTITCKASQSVSNDVAWYQQKPGKAPKLLIYFATNRYTGVPSRFSGSGYGTDFTLTISSLQPEDFATYYCQQDYSSPWTFGQGTKVEIKRTVAAPSVFIFPPSDEQLKSGTASVVCLLNNFYPREAKVQWKVDNALQSGNSQESVTEQDSKDSTYSLSSTLTLSKADYEKHKVYACEVTHQGLSSPVTKSFNRGEC
modifications: mcMMAD on engineered Cys 392 and Cys 443 (EU)
B2: 5T4-E380C+V422C-mcMMAD (antibody, human IgG1, kappa)
heavy: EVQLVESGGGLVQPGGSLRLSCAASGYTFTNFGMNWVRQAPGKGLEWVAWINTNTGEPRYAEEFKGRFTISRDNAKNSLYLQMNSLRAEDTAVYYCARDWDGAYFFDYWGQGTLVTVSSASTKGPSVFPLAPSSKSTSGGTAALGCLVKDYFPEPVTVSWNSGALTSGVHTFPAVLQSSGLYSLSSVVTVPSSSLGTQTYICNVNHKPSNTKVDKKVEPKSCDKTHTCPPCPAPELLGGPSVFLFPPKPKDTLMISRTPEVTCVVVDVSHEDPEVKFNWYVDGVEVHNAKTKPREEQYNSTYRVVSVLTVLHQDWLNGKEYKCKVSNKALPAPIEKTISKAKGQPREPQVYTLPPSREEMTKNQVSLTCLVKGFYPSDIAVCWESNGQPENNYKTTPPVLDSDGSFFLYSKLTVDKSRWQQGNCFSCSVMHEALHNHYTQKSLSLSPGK
light: DIQMTQSPSSLSASVGDRVTITCKASQSVSNDVAWYQQKPGKAPKLLIYFATNRYTGVPSRFSGSGYGTDFTLTISSLQPEDFATYYCQQDYSSPWTFGQGTKVEIKRTVAAPSVFIFPPSDEQLKSGTASVVCLLNNFYPREAKVQWKVDNALQSGNSQESVTEQDSKDSTYSLSSTLTLSKADYEKHKVYACEVTHQGLSSPVTKSFNRGEC
modifications: mcMMAD on engineered Cys 380 and Cys 422 (EU)
B3: 5T4-L398C-vcMMAD (antibody, human IgG1, kappa)
heavy: not shown
light: DIQMTQSPSSLSASVGDRVTITCKASQSVSNDVAWYQQKPGKAPKLLIYFATNRYTGVPSRFSGSGYGTDFTLTISSLQPEDFATYYCQQDYSSPWTFGQGTKVEIKRTVAAPSVFIFPPSDEQLKSGTASVVCLLNNFYPREAKVQWKVDNALQSGNSQESVTEQDSKDSTYSLSSTLTLSKADYEKHKVYACEVTHQGLSSPVTKSFNRGEC
modifications: vcMMAD (mcValCitPABC-MMAD) on engineered Cys 398 (EU)
B4: 5T4-E380C+L443C-mcMMAD (antibody)
heavy: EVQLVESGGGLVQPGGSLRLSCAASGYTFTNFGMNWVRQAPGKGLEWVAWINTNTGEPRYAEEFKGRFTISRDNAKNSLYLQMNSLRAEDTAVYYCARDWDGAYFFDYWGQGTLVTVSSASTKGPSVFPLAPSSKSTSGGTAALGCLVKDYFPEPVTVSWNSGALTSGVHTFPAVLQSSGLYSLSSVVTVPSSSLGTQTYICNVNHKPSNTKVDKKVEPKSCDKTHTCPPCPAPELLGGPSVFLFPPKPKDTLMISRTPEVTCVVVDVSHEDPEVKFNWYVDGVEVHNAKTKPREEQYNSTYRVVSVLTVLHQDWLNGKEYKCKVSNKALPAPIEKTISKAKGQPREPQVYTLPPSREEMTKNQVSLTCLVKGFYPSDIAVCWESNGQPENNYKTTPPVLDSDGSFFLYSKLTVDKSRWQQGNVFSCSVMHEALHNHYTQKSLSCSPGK
light: DIQMTQSPSSLSASVGDRVTITCKASQSVSNDVAWYQQKPGKAPKLLIYFATNRYTGVPSRFSGSGYGTDFTLTISSLQPEDFATYYCQQDYSSPWTFGQGTKVEIKRTVAAPSVFIFPPSDEQLKSGTASVVCLLNNFYPREAKVQWKVDNALQSGNSQESVTEQDSKDSTYSLSSTLTLSKADYEKHKVYACEVTHQGLSSPVTKSFNRGEC
modifications: mcMMAD on engineered Cys 380 and Cys 443 (EU)
B5: 5T4-V422C-vcMMAD (antibody, human IgG1, kappa)
heavy: not shown
light: DIQMTQSPSSLSASVGDRVTITCKASQSVSNDVAWYQQKPGKAPKLLIYFATNRYTGVPSRFSGSGYGTDFTLTISSLQPEDFATYYCQQDYSSPWTFGQGTKVEIKRTVAAPSVFIFPPSDEQLKSGTASVVCLLNNFYPREAKVQWKVDNALQSGNSQESVTEQDSKDSTYSLSSTLTLSKADYEKHKVYACEVTHQGLSSPVTKSFNRGEC
modifications: vcMMAD (mcValCitPABC-MMAD) on engineered Cys 422 (EU)
B6: 5T4-E380C+L398C-mcMMAD (antibody, human IgG1, kappa)
heavy: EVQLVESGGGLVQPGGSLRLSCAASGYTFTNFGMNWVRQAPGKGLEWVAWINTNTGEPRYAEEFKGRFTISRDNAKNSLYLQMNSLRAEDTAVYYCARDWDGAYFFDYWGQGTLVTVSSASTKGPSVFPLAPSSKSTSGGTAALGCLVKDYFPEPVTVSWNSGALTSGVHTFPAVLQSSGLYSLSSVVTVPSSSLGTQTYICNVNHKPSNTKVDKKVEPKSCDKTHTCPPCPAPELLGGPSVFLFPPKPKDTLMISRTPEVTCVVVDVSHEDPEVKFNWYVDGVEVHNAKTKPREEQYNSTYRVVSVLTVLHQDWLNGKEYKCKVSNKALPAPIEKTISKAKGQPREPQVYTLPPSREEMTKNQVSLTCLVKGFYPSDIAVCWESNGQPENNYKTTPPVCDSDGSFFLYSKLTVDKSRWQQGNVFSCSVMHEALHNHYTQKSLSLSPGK
light: DIQMTQSPSSLSASVGDRVTITCKASQSVSNDVAWYQQKPGKAPKLLIYFATNRYTGVPSRFSGSGYGTDFTLTISSLQPEDFATYYCQQDYSSPWTFGQGTKVEIKRTVAAPSVFIFPPSDEQLKSGTASVVCLLNNFYPREAKVQWKVDNALQSGNSQESVTEQDSKDSTYSLSSTLTLSKADYEKHKVYACEVTHQGLSSPVTKSFNRGEC
modifications: mcMMAD on engineered Cys 380 and Cys 398 (EU)
B7: 5T4-L398C+V422C-mcMMAD (antibody, human IgG1, kappa)
heavy: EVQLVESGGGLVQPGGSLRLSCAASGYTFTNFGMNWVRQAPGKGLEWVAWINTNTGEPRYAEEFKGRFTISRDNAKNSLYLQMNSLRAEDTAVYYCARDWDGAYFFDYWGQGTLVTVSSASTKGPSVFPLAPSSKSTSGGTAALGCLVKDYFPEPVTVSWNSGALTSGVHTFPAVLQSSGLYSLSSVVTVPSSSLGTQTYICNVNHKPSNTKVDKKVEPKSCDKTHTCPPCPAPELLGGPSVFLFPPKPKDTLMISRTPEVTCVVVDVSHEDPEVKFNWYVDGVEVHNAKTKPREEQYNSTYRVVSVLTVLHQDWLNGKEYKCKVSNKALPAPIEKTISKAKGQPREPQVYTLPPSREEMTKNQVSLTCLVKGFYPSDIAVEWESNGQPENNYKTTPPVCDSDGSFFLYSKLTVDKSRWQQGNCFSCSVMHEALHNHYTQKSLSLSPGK
light: DIQMTQSPSSLSASVGDRVTITCKASQSVSNDVAWYQQKPGKAPKLLIYFATNRYTGVPSRFSGSGYGTDFTLTISSLQPEDFATYYCQQDYSSPWTFGQGTKVEIKRTVAAPSVFIFPPSDEQLKSGTASVVCLLNNFYPREAKVQWKVDNALQSGNSQESVTEQDSKDSTYSLSSTLTLSKADYEKHKVYACEVTHQGLSSPVTKSFNRGEC
modifications: mcMMAD on engineered Cys 398 and Cys 422 (EU)
B8: 5T4-L398C+L443C-mcMMAD (antibody)
heavy: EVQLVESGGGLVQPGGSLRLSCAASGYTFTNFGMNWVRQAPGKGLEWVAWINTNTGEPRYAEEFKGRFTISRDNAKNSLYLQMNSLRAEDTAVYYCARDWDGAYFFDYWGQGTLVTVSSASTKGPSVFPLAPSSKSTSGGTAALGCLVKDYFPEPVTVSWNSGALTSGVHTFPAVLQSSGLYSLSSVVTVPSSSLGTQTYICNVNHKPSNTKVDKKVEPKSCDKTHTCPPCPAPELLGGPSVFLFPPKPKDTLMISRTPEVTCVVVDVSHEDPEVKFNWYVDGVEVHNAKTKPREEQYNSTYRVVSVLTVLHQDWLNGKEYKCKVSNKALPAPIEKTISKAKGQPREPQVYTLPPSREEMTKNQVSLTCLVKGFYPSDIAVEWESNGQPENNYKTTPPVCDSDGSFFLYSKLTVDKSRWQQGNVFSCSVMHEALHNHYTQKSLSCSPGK
light: DIQMTQSPSSLSASVGDRVTITCKASQSVSNDVAWYQQKPGKAPKLLIYFATNRYTGVPSRFSGSGYGTDFTLTISSLQPEDFATYYCQQDYSSPWTFGQGTKVEIKRTVAAPSVFIFPPSDEQLKSGTASVVCLLNNFYPREAKVQWKVDNALQSGNSQESVTEQDSKDSTYSLSSTLTLSKADYEKHKVYACEVTHQGLSSPVTKSFNRGEC
modifications: mcMMAD on engineered Cys 398 and Cys 443 (EU)
B9: 5T4-E380C-vcMMAD (antibody, human IgG1, kappa)
heavy: not shown
light: DIQMTQSPSSLSASVGDRVTITCKASQSVSNDVAWYQQKPGKAPKLLIYFATNRYTGVPSRFSGSGYGTDFTLTISSLQPEDFATYYCQQDYSSPWTFGQGTKVEIKRTVAAPSVFIFPPSDEQLKSGTASVVCLLNNFYPREAKVQWKVDNALQSGNSQESVTEQDSKDSTYSLSSTLTLSKADYEKHKVYACEVTHQGLSSPVTKSFNRGEC
modifications: vcMMAD (mcValCitPABC-MMAD) on engineered Cys 380 (EU)
B10: 5T4-K392C-mcMMAD (antibody, human IgG1, kappa)
heavy: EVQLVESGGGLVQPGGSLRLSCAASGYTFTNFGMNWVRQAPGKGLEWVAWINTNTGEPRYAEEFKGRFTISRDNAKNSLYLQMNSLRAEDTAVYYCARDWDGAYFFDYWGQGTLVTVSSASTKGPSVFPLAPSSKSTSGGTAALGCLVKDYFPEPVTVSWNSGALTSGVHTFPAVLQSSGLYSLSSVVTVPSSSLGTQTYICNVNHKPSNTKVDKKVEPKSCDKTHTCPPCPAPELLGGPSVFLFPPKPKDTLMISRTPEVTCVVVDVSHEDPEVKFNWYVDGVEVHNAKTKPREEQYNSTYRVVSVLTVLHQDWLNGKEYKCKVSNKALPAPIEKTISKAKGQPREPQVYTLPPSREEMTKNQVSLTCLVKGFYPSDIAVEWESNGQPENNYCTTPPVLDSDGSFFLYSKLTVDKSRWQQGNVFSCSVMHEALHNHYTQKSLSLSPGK
light: DIQMTQSPSSLSASVGDRVTITCKASQSVSNDVAWYQQKPGKAPKLLIYFATNRYTGVPSRFSGSGYGTDFTLTISSLQPEDFATYYCQQDYSSPWTFGQGTKVEIKRTVAAPSVFIFPPSDEQLKSGTASVVCLLNNFYPREAKVQWKVDNALQSGNSQESVTEQDSKDSTYSLSSTLTLSKADYEKHKVYACEVTHQGLSSPVTKSFNRGEC
modifications: mcMMAD on engineered Cys 392 (EU)
B11: 5T4-L443C-vcMMAD (antibody)
heavy: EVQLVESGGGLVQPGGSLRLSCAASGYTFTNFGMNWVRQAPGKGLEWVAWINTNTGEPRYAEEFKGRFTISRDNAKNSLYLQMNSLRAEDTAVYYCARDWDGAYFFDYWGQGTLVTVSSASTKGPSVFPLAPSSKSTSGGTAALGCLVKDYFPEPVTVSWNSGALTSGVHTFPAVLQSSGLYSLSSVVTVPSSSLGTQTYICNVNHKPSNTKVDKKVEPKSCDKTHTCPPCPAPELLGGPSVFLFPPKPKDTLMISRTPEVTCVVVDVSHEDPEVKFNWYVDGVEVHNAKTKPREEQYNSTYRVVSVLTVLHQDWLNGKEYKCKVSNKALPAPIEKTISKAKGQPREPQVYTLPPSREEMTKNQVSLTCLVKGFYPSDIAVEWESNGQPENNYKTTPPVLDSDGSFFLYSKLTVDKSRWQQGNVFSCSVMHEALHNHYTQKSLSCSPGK
light: DIQMTQSPSSLSASVGDRVTITCKASQSVSNDVAWYQQKPGKAPKLLIYFATNRYTGVPSRFSGSGYGTDFTLTISSLQPEDFATYYCQQDYSSPWTFGQGTKVEIKRTVAAPSVFIFPPSDEQLKSGTASVVCLLNNFYPREAKVQWKVDNALQSGNSQESVTEQDSKDSTYSLSSTLTLSKADYEKHKVYACEVTHQGLSSPVTKSFNRGEC
modifications: vcMMAD (mcValCitPABC-MMAD) on engineered Cys 443 (EU)
B12: 5T4-E380C (antibody, human IgG1, kappa)
heavy: not shown
light: DIQMTQSPSSLSASVGDRVTITCKASQSVSNDVAWYQQKPGKAPKLLIYFATNRYTGVPSRFSGSGYGTDFTLTISSLQPEDFATYYCQQDYSSPWTFGQGTKVEIKRTVAAPSVFIFPPSDEQLKSGTASVVCLLNNFYPREAKVQWKVDNALQSGNSQESVTEQDSKDSTYSLSSTLTLSKADYEKHKVYACEVTHQGLSSPVTKSFNRGEC
B13: 5T4-S440C (antibody, IgG1)
heavy: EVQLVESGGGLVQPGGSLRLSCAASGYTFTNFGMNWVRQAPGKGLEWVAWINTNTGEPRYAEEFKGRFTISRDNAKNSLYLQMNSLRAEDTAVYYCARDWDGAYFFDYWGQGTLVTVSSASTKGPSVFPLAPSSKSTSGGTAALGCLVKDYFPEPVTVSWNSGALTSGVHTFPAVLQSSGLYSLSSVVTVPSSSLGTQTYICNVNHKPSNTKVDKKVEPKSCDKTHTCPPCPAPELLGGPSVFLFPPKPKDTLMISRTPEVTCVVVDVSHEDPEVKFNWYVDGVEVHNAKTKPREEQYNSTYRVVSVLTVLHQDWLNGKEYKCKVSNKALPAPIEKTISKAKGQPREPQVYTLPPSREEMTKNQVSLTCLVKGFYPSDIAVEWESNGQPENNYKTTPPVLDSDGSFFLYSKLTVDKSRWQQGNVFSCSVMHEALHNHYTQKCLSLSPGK
light: DIQMTQSPSSLSASVGDRVTITCKASQSVSNDVAWYQQKPGKAPKLLIYFATNRYTGVPSRFSGSGYGTDFTLTISSLQPEDFATYYCQQDYSSPWTFGQGTKVEIKRTVAAPSVFIFPPSDEQLKSGTASVVCLLNNFYPREAKVQWKVDNALQSGNSQESVTEQDSKDSTYSLSSTLTLSKADYEKHKVYACEVTHQGLSSPVTKSFNRGEC
B14: 5T4-K392C (antibody, human IgG1, kappa)
heavy: not shown
light: DIQMTQSPSSLSASVGDRVTITCKASQSVSNDVAWYQQKPGKAPKLLIYFATNRYTGVPSRFSGSGYGTDFTLTISSLQPEDFATYYCQQDYSSPWTFGQGTKVEIKRTVAAPSVFIFPPSDEQLKSGTASVVCLLNNFYPREAKVQWKVDNALQSGNSQESVTEQDSKDSTYSLSSTLTLSKADYEKHKVYACEVTHQGLSSPVTKSFNRGEC
B15: 5T4-L398C (antibody, human IgG1, kappa)
heavy: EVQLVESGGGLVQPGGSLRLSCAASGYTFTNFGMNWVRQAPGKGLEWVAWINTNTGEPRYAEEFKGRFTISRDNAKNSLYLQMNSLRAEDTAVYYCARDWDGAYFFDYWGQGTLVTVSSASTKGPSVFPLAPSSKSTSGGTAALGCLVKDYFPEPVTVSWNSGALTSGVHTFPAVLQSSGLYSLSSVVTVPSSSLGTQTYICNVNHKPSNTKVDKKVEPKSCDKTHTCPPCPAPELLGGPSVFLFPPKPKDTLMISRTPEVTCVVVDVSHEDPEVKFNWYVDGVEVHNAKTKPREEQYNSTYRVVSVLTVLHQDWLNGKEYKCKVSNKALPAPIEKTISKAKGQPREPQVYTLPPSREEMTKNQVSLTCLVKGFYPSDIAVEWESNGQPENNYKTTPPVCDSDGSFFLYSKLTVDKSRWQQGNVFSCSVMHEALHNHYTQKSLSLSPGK
light: DIQMTQSPSSLSASVGDRVTITCKASQSVSNDVAWYQQKPGKAPKLLIYFATNRYTGVPSRFSGSGYGTDFTLTISSLQPEDFATYYCQQDYSSPWTFGQGTKVEIKRTVAAPSVFIFPPSDEQLKSGTASVVCLLNNFYPREAKVQWKVDNALQSGNSQESVTEQDSKDSTYSLSSTLTLSKADYEKHKVYACEVTHQGLSSPVTKSFNRGEC
B16: 5T4-F404C (antibody, human IgG1, kappa)
heavy: not shown
light: DIQMTQSPSSLSASVGDRVTITCKASQSVSNDVAWYQQKPGKAPKLLIYFATNRYTGVPSRFSGSGYGTDFTLTISSLQPEDFATYYCQQDYSSPWTFGQGTKVEIKRTVAAPSVFIFPPSDEQLKSGTASVVCLLNNFYPREAKVQWKVDNALQSGNSQESVTEQDSKDSTYSLSSTLTLSKADYEKHKVYACEVTHQGLSSPVTKSFNRGEC
B17: 5T4-T359C (antibody, human IgG1, kappa)
heavy: not shown
light: DIQMTQSPSSLSASVGDRVTITCKASQSVSNDVAWYQQKPGKAPKLLIYFATNRYTGVPSRFSGSGYGTDFTLTISSLQPEDFATYYCQQDYSSPWTFGQGTKVEIKRTVAAPSVFIFPPSDEQLKSGTASVVCLLNNFYPREAKVQWKVDNALQSGNSQESVTEQDSKDSTYSLSSTLTLSKADYEKHKVYACEVTHQGLSSPVTKSFNRGEC

molecular target: T1, human 5T4 antigen on cells …; assay: cell-based or functional assay

Row | Binder | IC50, growth inhibition (MTS), MDA-MB-468 cells (5T4 expression 2+) | IC-50, growth inhibition (MTS), MDAMB435/5T4 cells (5T4 expression 3+) [ng ADC/ml]
1 | B1 | 30000 ng/mL | 98
2 | B2 | 5000 ng/mL | 100
3 | B3 | – | 14
4 | B4 | 3300 ng/mL | 79
5 | B5 | – | 15
6 | B6 | 5100 ng/mL | 79
7 | B7 | 17000 ng/mL | 100
8 | B8 | 5500 ng/mL and 7100 ng/mL | –
9 | B9 | – | 15
10 | B10 | 32000 ng/mL | 160
11 | B11 | 1400 ng/mL | 40

molecular target: T3, human FcRn (human, UniProt P55899 24-297; P61769 21-119, limits assumed, biotinylated through an engineered Avi-tag); assay: BIAcore SPR, steady state, pH 6.0, biotinylated human FcRn on SA chip
T3 construct: Immobilised on a streptavidin chip; not shown: engineered Avi-tag
T3 sequence (P55899 24-297 limits assumed, chain 1 of 2): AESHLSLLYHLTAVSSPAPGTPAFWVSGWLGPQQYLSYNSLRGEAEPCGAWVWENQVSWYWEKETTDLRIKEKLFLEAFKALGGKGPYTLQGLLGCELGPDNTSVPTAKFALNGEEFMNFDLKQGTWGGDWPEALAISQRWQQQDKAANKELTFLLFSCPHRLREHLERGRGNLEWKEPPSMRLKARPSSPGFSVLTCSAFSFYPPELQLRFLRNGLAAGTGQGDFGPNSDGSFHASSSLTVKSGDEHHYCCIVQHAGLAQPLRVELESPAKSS
T3 sequence (P61769 21-119 limits assumed, chain 2 of 2): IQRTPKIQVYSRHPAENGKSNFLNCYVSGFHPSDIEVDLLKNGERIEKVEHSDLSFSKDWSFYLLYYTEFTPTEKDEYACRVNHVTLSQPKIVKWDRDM

Row | Binder | Kd [nM]
12 | B12 | 390
13 | B13 | 608
14 | B14 | 384
15 | B15 | 513

molecular target: T2, human truncated recombinant 5T4 protein …; assay: competition ELISA on plate-coated 5T4-tm-_myc_his; competitor: biotinylated wild type anti-5T4 antibody at 1.3 nM, detected with streptavidin-HRP, OD450
Description: That is, both the variants and the control wild type antibodies comprised human IgG1 Fc regions. […] The contents of the plate were discarded and then the plate was blocked with PBS-CMF pH7.2+0.02% casein for 3 hours at room temperature.
The wells were washed four times with PBS-CMF pH7.2+0.03% tween-20. Streptavidin-HRP (catalog #7100-05, Southern Biotech, (Birmingham, Ala.) diluted 1:10,000 was added and incubated for 30 minutes at room temperature. The wells were washed four times with PBS-CMF pH 7.2+0.03% tween-20 and TMB (BioFx) was added.

Row | Binder | IC50 (read off the curve) [nM] | binding result
16 | B13 | ~6 | –
17 | B15 | ~7 | –
18 | B16 | – | binds
19 | B17 | ~6 | –
